Measured values from patent publication US11053476B2, “Generation of cancer stem cells and use thereof” (EXOSTEM BIOTEC LTD., priority 2016, dated 2021).

Key:
Assay type in all cases: cell-based
Sox2 = Sox2 expression in generated CSCs, factor added to basic protocol
Protocol: (§1) In order to generate CSCs in vitro, both primary differentiated cancer cells (primary glioma cells) as well as cells from a cancer cell line (U87 cells) were obtained. Glioma cells and U87 cells were trypsinized, and washed three times with medium +10% FCS. The cells were then resuspended in medium that was brought to a pH of 6.0 and were placed on a rotator and incubated for 45-90 minutes. The cells were then incubated in medium supplemented with EGF and FGF. The cells were optionally kept in mild hypoxic conditions (2-3% oxygen) during this second incubation and were then plated on bacterial plates.
(§2) Tumorspheres formed on these plates within one week and were removed from the cells that had attached to the dish. The tumorspheres were disaggregated and the cells were re-plated at limiting dilution to generate secondary spheroids. The secondary tumorspheres were then characterized for CSC specific markers, the ability to self-renew and the ability to generate tumors that recapitulate the parental tumors.
Knowing that the basic protocol for generating CSCs (acid, EGF/FGF and two rounds of sphere generation) was successful; several modifications to the protocol were examined. […] Second, a wide range of factors were found, that when supplemented to the EGF and FGF containing media, increased the efficacy of the protocol, either by increasing the number of CSCs produced or by increasing their stemness.

[1] = test system: differentiated cancer cells; experiment: Efficacy and penetrance of dedifferentiation with transcription and secreted factors; conditions: expression in the cells or in their media during second incubation or tumorsphere formation
Protocol: as §1, §2
Lastly, several transcription factors and secreted factors that are known to enhance stemness or cancer progression were introduced into the differentiated cells during the second incubation or during tumorsphere formation.

[2] = test system: CSCs generated from differentiated cancer cells; experiment: Self-renewal of CSCs (secondary tumorspheres) generated from differentiated cancer cells, factor added to basic protocol
Protocol: as §1, §2
Knowing that the basic protocol for generating CSCs (acid, EGF/FGF and two rounds of sphere generation) was successful; several modifications to the protocol were examined. […]

B1: PKC epsilon: protein kinase C epsilon; activators or overexpression (protein, UniProt Q02156 1-737, looked up)
Protein kinase C epsilon type: MVVFNGLLKIKICEAVSLKPTAWSLRHAVGPRPQTFLLDPYIALNVDDSRIGQTATKQKTNSPAWHDEFVTDVCNGRKIELAVFHDAPIGYDDFVANCTIQFEELLQNGSRHFEDWIDLEPEGRVYVIIDLSGSSGEAPKDNEERVFRERMRPRKRQGAVRRRVHQVNGHKFMATYLRQPTYCSHCRDFIWGVIGKQGYQCQVCTCVVHKRCHELIITKCAGLKKQETPDQVGSQRFSVNMPHKFGIHNYKVPTFCDHCGSLLWGLLRQGLQCKVCKMNVHRRCETNVAPNCGVDARGIAKVLADLGVTPDKITNSGQRRKKLIAGAESPQPASGSSPSEEDRSKSAPTSPCDQEIKELENNIRKALSFDNRGEEHRAASSPDGQLMSPGENGEVRQGQAKRLGLDEFNFIKVLGKGSFGKVMLAELKGKDEVYAVKVLKKDVILQDDDVDCTMTEKRILALARKHPYLTQLYCCFQTKDRLFFVMEYVNGGDLMFQIQRSRKFDEPRSRFYAAEVTSALMFLHQHGVIYRDLKLDNILLDAEGHCKLADFGMCKEGILNGVTTTTFCGTPDYIAPEILQELEYGPSVDWWALGVLMYEMMAGQPPFEADNEDDLFESILHDDVLYPVWLSKEAVSILKAFMTKNPHKRLGCVASQNGEDAIKQHPFFKEIDWVLLEQKKIKPPFKPRIKTKRDVNNFDQDFTREEPVLTLVDEAIVKQINQEEFKGFSYFGEDLMP
B1 was tested, and the “effect on Sox2 expression” value (Sox2; PKC activation, FIG. 6B) was “increase Sox2 expression” and the “effectiveness on Sox2 expression compared with PMA” value (Sox2; PKC activation, FIG. 6B) was “more effective that PMA”.

B2: COX2: transcription or secreted factor expressed in the cells or in their media (protein, UniProt P35354 18-604, looked up)
Prostaglandin G/H synthase 2: ANPCCSHPCQNRGVCMSVGFDQYKCDCTRTGFYGENCSTPEFLTRIKLFLKPTPNTVHYILTHFKGFWNVVNNIPFLRNAIMSYVLTSRSHLIDSPPTYNADYGYKSWEAFSNLSYYTRALPPVPDDCPTPLGVKGKKQLPDSNEIVEKLLLRRKFIPDPQGSNMMFAFFAQHFTHQFFKTDHKRGPAFTNGLGHGVDLNHIYGETLARQRKLRLFKDGKMKYQIIDGEMYPPTVKDTQAEMIYPPQVPEHLRFAVGQEVFGLVPGLMMYATIWLREHNRVCDVLKQEHPEWGDEQLFQTSRLILIGETIKIVIEDYVQHLSGYHFKLKFDPELLFNKQFQYQNRIAAEFNTLYHWHPLLPDTFQIHDQKYNYQQFIYNNSILLEHGITQFVESFTRQIAGRVAGGRNVPPAVQKVSQASIDQSRQMKYQSFNEYRKRFMLKPYESFEELTGEKEMSAELEALYGDIDAVELYPALLVEKPRPDAIFGETMVEVGAPFSLKGLMGNVICSPAYWKPSTFGGEVGFQIINTASIQSLICNNVKGCPFTSFSVPDPELIKTVTINASSSRSGLDDINPTVLLKERSTEL
B2 was tested, and the “effect on dedifferentiation brought about by the standard protocol” value [1] was “increase the efficacy and penetrance of the dedifferentiation”.

B3: CEBP/B: transcription or secreted factor expressed in the cells or in their media (protein, UniProt P17676 1-345, looked up)
CCAAT/enhancer-binding …: MQRLVAWDPACLPLPPPPPAFKSMEVANFYYEADCLAAAYGGKAAPAAPPAARPGPRPPAGELGSIGDHERAIDFSPYLEPLGAPQAPAPATATDTFEAAPPAPAPAPASSGQHHDFLSDLFSDDYGGKNCKKPAEYGYVSLGRLGAAKGALHPGCFAPLHPPPPPPPPPAELKAEPGFEPADCKRKEEAGAPGGGAGMAAGFPYALRAYLGYQAVPSGSSGSLSTSSSSSPPGTPSPADAKAPPTACYAGAAPAPSQVKSKAKKTVDKHSDEYKIRRERNNIAVRKSRDKAKMRNLETQHKVLELTAENERLQKKVEQLSRELSTLRNLFKQLPEPLLASSGHC
In the case of B3, the “effect on dedifferentiation brought about by the standard protocol” value [1] is reported as “increase the efficacy and penetrance of the dedifferentiation”.

B4: Lin-28: overexpressed factor, called miR in b196 and protein in b22 (protein, UniProt Q9H9Z2 2-209, looked up)
Protein lin-28 homolog A: GSVSNQQFAGGCAKAAEEAPEEAPEDAARAADEPQLLHGAGICKWFNVRMGFGFLSMTARAGVALDPPVDVFVHQSKLHMEGFRSLKEGEAVEFTFKKSAKGLESIRVTGPGGVFCIGSERRPKGKSMQKRRSKGDRCYNCGGLDHHAKECKLPPQPKKCHFCQSISHMVASCPLKAQQGPSAQGKPTYFREEEEEIHSPTLLPEAQN
With B4 the “self-renewal over the basic protocol” value ([2]; overexpressed miR or polynucleotide inhibitor, FIG. 7A) was “improved” and the “Sox2 expression over the basic protocol” value (Sox2; overexpressed miR or polynucleotide inhibitor, FIG. 7B) was “improved”.

B5: IL10: anti-inflammatory cytokine (protein, UniProt P22301 19-178, looked up)
Interleukin-10: SPGQGTQSENSCTHFPGNLPNMLRDLRDAFSRVKTFFQMKDQLDNLLLKESLLEDFKGYLGCQALSEMIQFYLEEVMPQAENQDPDIKAHVNSLGENLKTLRLRLRRCHRFLPCENKSKAVEQVKNAFNKLQEKGIYKAMSEFDIFINYIEAYMTMKIRN
B5 was tested, and the “effect on rate of self-renewal” value ([2]; cytokine supplemented to second incubation media, FIG. 4A) was “no effect” and the “effect on Sox2 expression” value (Sox2; cytokine supplemented to second incubation media, FIG. 4B) was “no effect”.

B6: WNT5A: transcription or secreted factor expressed in the cells or in their media (protein, UniProt P41221 62-380, looked up)
Protein Wnt-5a: IIGAQPLCSQLAGLSQGQKKLCHLYQDHMQYIGEGAKTGIKECQYQFRHRRWNCSTVDNTSVFGRVMQIGSRETAFTYAVSAAGVVNAMSRACREGELSTCGCSRAARPKDLPRDWLWGGCGDNIDYGYRFAKEFVDARERERIHAKGSYESARILMNLHNNEAGRRTVYNLADVACKCHGVSGSCSLKTCWLQLADFRKVGDALKEKYDSAAAMRLNSRGKLVQVNSRFNSPTTQDLVYIDPSPDYCVRNESTGSLGTQGRLCNKTSEGMDGCELMCCGRGYDQFKTVQTERCHCKFHWCCYVKCKKCTEIVDQFVCK
With B6 the “effect on dedifferentiation brought about by the standard protocol” value [1] was “increase the efficacy and penetrance of the dedifferentiation”.

B7: RUNX2: transcription or secreted factor expressed in the cells or in their media (protein, UniProt Q13950 1-521, looked up)
Runt-related transcription …: MASNSLFSTVTPCQQNFFWDPSTSRRFSPPSSSLQPGKMSDVSPVVAAQQQQQQQQQQQQQQQQQQQQQQQEAAAAAAAAAAAAAAAAAVPRLRPPHDNRTMVEIIADHPAELVRTDSPNFLCSVLPSHWRCNKTLPVAFKVVALGEVPDGTVVTVMAGNDENYSAELRNASAVMKNQVARFNDLRFVGRSGRGKSFTLTITVFTNPPQVATYHRAIKVTVDGPREPRRHRQKLDDSKPSLFSDRLSDLGRIPHPSMRVGVPPQNPRPSLNSAPSPFNPQGQSQITDPRQAQSSPPWSYDQSYPSYLSQMTSPSIHSTTPLSSTRGTGLPAITDVPRRISDDDTATSDFCLWPSTLSKKSQAGASELGPFSDPRQFPSISSLTESRFSNPRMHYPATFTYTPPVTSGMSLGMSATTHYHTYLPPPYPGSSQSQSGPFQTSSTPYLYYGTSSGSYQFPMVPGGDRSPSRMLPPCTTTSNGSTLLNPNLPNQNDGVDADGSHSSSPTVLNSSGRMDESVWRPY
B7 was tested, and the “effect on dedifferentiation brought about by the standard protocol” value [1] was “increase the efficacy and penetrance of the dedifferentiation”.
